Results on 16 molecules are retold here after patent US9957297B2, “Template-fixed peptidomimetics as inhibitors of FPR1” (POLYPHOR AG, priority 2011, dated 2018).

The test has as its target T1, Formyl-Peptide Receptor 1 (UniProt P21462 1-350, limits assumed).
T1 sequence (looked up): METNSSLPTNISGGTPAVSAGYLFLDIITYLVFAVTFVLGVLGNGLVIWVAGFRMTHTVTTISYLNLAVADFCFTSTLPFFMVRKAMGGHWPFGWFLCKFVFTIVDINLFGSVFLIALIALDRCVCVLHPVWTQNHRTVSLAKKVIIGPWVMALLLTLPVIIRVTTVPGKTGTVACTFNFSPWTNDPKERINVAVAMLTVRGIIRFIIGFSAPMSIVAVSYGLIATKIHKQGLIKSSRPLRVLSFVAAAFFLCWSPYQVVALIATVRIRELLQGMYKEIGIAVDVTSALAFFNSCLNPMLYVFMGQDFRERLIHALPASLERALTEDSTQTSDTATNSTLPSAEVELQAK
The test can be described thus: cell-based or functional assay.

Bridges are numbered along the chain shown (N, C = ends). Primed or numbered codes have the meaning given here. [ ]: non-standard residue; d: D form. Phe(4-CF3) = N[C@@H](Cc1ccc(C(F)(F)F)cc1)C(=O)O; dPro(4S-NH2) = N[C@@H]1CN[C@@H](C(=O)O)C1; dTic = O=C(O)[C@H]1Cc2ccccc2CN1; dPip′ = not defined here; Dab = NCC[C@H](N)C(=O)O

B1: cyclo(-Tyr-His-Lys-Cys-His-Gly-^DAla-Trp-Thr-Ile-Cys-Tyr-Glu-Lys-^DPro-Glu-) (peptide)
peptide: cyclo(YHKCHG[dA]WTICYEK[dP]E)
modifications: disulfide 4-11
SMILES: CC[C@H](C)[C@@H]1NC(=O)[C@H]([C@@H](C)O)NC(=O)[C@H](Cc2c[nH]c3ccccc23)NC(=O)[C@@H](C)NC(=O)CNC(=O)[C@H](Cc2c[nH]cn2)NC(=O)[C@@H]2CSSC[C@H](NC1=O)C(=O)N[C@@H](Cc1ccc(O)cc1)C(=O)N[C@@H](CCC(=O)O)C(=O)N[C@@H](CCCCN)C(=O)N1CCC[C@@H]1C(=O)N[C@@H](CCC(=O)O)C(=O)N[C@@H](Cc1ccc(O)cc1)C(=O)N[C@@H](Cc1c[nH]cn1)C(=O)N[C@@H](CCCCN)C(=O)N2
Consider B1, for which the “β-Arrestin IC50” value stood at 77 nM.

B2: cyclo(-Tyr-His-Lys-Cys-Tyr-Gly-^DPro-Trp-Thr-Ile-Cys-Tyr-Glu-Lys-^DPro-Pro-) (peptide)
peptide: cyclo(YHKCYG[dP]WTICYEK[dP]P)
modifications: disulfide 4-11
SMILES: CC[C@H](C)[C@@H]1NC(=O)[C@H]([C@@H](C)O)NC(=O)[C@H](Cc2c[nH]c3ccccc23)NC(=O)[C@H]2CCCN2C(=O)CNC(=O)[C@H](Cc2ccc(O)cc2)NC(=O)[C@@H]2CSSC[C@H](NC1=O)C(=O)N[C@@H](Cc1ccc(O)cc1)C(=O)N[C@@H](CCC(=O)O)C(=O)N[C@@H](CCCCN)C(=O)N1CCC[C@@H]1C(=O)N1CCC[C@H]1C(=O)N[C@@H](Cc1ccc(O)cc1)C(=O)N[C@@H](Cc1c[nH]cn1)C(=O)N[C@@H](CCCCN)C(=O)N2
Regarding B2, the “β-Arrestin IC50” value was 22 nM.

B3: cyclo(-Tyr-His-Lys-Cys-Trp-Gly-^DPro-Trp-Thr-Ile-Cys-Tyr-Glu-Lys-^DPro-Pro-) (peptide)
peptide: cyclo(YHKCWG[dP]WTICYEK[dP]P)
modifications: disulfide 4-11
SMILES: CC[C@H](C)[C@@H]1NC(=O)[C@H]([C@@H](C)O)NC(=O)[C@H](Cc2c[nH]c3ccccc23)NC(=O)[C@H]2CCCN2C(=O)CNC(=O)[C@H](Cc2c[nH]c3ccccc23)NC(=O)[C@@H]2CSSC[C@H](NC1=O)C(=O)N[C@@H](Cc1ccc(O)cc1)C(=O)N[C@@H](CCC(=O)O)C(=O)N[C@@H](CCCCN)C(=O)N1CCC[C@@H]1C(=O)N1CCC[C@H]1C(=O)N[C@@H](Cc1ccc(O)cc1)C(=O)N[C@@H](Cc1c[nH]cn1)C(=O)N[C@@H](CCCCN)C(=O)N2
On to B3, for which the “β-Arrestin IC50” value stood at 54 nM.

B4: cyclo(-Tyr-His-Lys-Cys-His-Gly-^DPro-Trp-Thr-Ile-Cys-Tyr-Glu-Lys-^DLys-Pro-) (peptide)
peptide: cyclo(YHKCHG[dP]WTICYEK[dK]P)
modifications: disulfide 4-11
SMILES: CC[C@H](C)[C@@H]1NC(=O)[C@H]([C@@H](C)O)NC(=O)[C@H](Cc2c[nH]c3ccccc23)NC(=O)[C@H]2CCCN2C(=O)CNC(=O)[C@H](Cc2c[nH]cn2)NC(=O)[C@@H]2CSSC[C@H](NC1=O)C(=O)N[C@@H](Cc1ccc(O)cc1)C(=O)N[C@@H](CCC(=O)O)C(=O)N[C@@H](CCCCN)C(=O)N[C@H](CCCCN)C(=O)N1CCC[C@H]1C(=O)N[C@@H](Cc1ccc(O)cc1)C(=O)N[C@@H](Cc1c[nH]cn1)C(=O)N[C@@H](CCCCN)C(=O)N2
On to B4, for which the “β-Arrestin IC50” value turned out to be 385 nM.

B5: cyclo(-Tyr-His-Lys-Cys-His-Gly-^DPro-Trp-Thr-Ile-Cys-Tyr-Glu-Trp-^DPro-Pro-) (peptide)
peptide: cyclo(YHKCHG[dP]WTICYEW[dP]P)
modifications: disulfide 4-11
SMILES: CC[C@H](C)[C@@H]1NC(=O)[C@H]([C@@H](C)O)NC(=O)[C@H](Cc2c[nH]c3ccccc23)NC(=O)[C@H]2CCCN2C(=O)CNC(=O)[C@H](Cc2c[nH]cn2)NC(=O)[C@@H]2CSSC[C@H](NC1=O)C(=O)N[C@@H](Cc1ccc(O)cc1)C(=O)N[C@@H](CCC(=O)O)C(=O)N[C@@H](Cc1c[nH]c3ccccc13)C(=O)N1CCC[C@@H]1C(=O)N1CCC[C@H]1C(=O)N[C@@H](Cc1ccc(O)cc1)C(=O)N[C@@H](Cc1c[nH]cn1)C(=O)N[C@@H](CCCCN)C(=O)N2
B5: the “β-Arrestin IC50” value came to 16 nM.

B6: cyclo(-Tyr-His-Lys-Cys-His-Gly-^DPro-Trp-Thr-Ile-Cys-Tyr-Glu-Lys-^DAla-Pro-) (peptide)
peptide: cyclo(YHKCHG[dP]WTICYEK[dA]P)
modifications: disulfide 4-11
SMILES: CC[C@H](C)[C@@H]1NC(=O)[C@H]([C@@H](C)O)NC(=O)[C@H](Cc2c[nH]c3ccccc23)NC(=O)[C@H]2CCCN2C(=O)CNC(=O)[C@H](Cc2c[nH]cn2)NC(=O)[C@@H]2CSSC[C@H](NC1=O)C(=O)N[C@@H](Cc1ccc(O)cc1)C(=O)N[C@@H](CCC(=O)O)C(=O)N[C@@H](CCCCN)C(=O)N[C@H](C)C(=O)N1CCC[C@H]1C(=O)N[C@@H](Cc1ccc(O)cc1)C(=O)N[C@@H](Cc1c[nH]cn1)C(=O)N[C@@H](CCCCN)C(=O)N2
B6: the “β-Arrestin IC50” value was determined as 65 nM.

B7: cyclo(-Tyr-His-Lys-Cys-His-Gly-^DPro-Trp-Thr-Ile-Cys-Tyr-Glu-Lys-^DLys-Glu-) (peptide)
peptide: cyclo(YHKCHG[dP]WTICYEK[dK]E)
modifications: disulfide 4-11
SMILES: CC[C@H](C)[C@@H]1NC(=O)[C@H]([C@@H](C)O)NC(=O)[C@H](Cc2c[nH]c3ccccc23)NC(=O)[C@H]2CCCN2C(=O)CNC(=O)[C@H](Cc2c[nH]cn2)NC(=O)[C@@H]2CSSC[C@H](NC1=O)C(=O)N[C@@H](Cc1ccc(O)cc1)C(=O)N[C@@H](CCC(=O)O)C(=O)N[C@@H](CCCCN)C(=O)N[C@H](CCCCN)C(=O)N[C@@H](CCC(=O)O)C(=O)N[C@@H](Cc1ccc(O)cc1)C(=O)N[C@@H](Cc1c[nH]cn1)C(=O)N[C@@H](CCCCN)C(=O)N2
B7: the “β-Arrestin IC50” value was 124 nM.

B8: cyclo(-Tyr-His-Lys-Cys-Trp-Gly-^DPro-Trp-Thr-Ile-Cys-Tyr-Glu-Lys-^DAla-Pro-) (peptide)
peptide: cyclo(YHKCWG[dP]WTICYEK[dA]P)
modifications: disulfide 4-11
SMILES: CC[C@H](C)[C@@H]1NC(=O)[C@H]([C@@H](C)O)NC(=O)[C@H](Cc2c[nH]c3ccccc23)NC(=O)[C@H]2CCCN2C(=O)CNC(=O)[C@H](Cc2c[nH]c3ccccc23)NC(=O)[C@@H]2CSSC[C@H](NC1=O)C(=O)N[C@@H](Cc1ccc(O)cc1)C(=O)N[C@@H](CCC(=O)O)C(=O)N[C@@H](CCCCN)C(=O)N[C@H](C)C(=O)N1CCC[C@H]1C(=O)N[C@@H](Cc1ccc(O)cc1)C(=O)N[C@@H](Cc1c[nH]cn1)C(=O)N[C@@H](CCCCN)C(=O)N2
On to B8, for which the “β-Arrestin IC50” value was found to be 126 nM.

B9: cyclo(-Tyr-His-Lys-Cys-Phe(4CF3)-Gly-^DPro-Trp-Thr-Ile-Cys-Tyr-Glu-Lys-^DPro-Pro-) (peptide)
peptide: cyclo(YHKC[Phe(4-CF3)]G[dP]WTICYEK[dP]P)
modifications: disulfide 4-11
SMILES: CC[C@H](C)[C@@H]1NC(=O)[C@H]([C@@H](C)O)NC(=O)[C@H](Cc2c[nH]c3ccccc23)NC(=O)[C@H]2CCCN2C(=O)CNC(=O)[C@H](Cc2ccc(C(F)(F)F)cc2)NC(=O)[C@@H]2CSSC[C@H](NC1=O)C(=O)N[C@@H](Cc1ccc(O)cc1)C(=O)N[C@@H](CCC(=O)O)C(=O)N[C@@H](CCCCN)C(=O)N1CCC[C@@H]1C(=O)N1CCC[C@H]1C(=O)N[C@@H](Cc1ccc(O)cc1)C(=O)N[C@@H](Cc1c[nH]cn1)C(=O)N[C@@H](CCCCN)C(=O)N2
Consider B9, for which the “β-Arrestin IC50” value was found to be 172 nM.
The same measure for cyclo(YHKCHG[dP]WTICYEK[dPip′]P) (disulfide 4-11) [cyclo(-Tyr-His-Lys-Cys-His-Gly-^DPro-Trp-Thr-Ile-Cys-Tyr-Glu-Lys-^DPip-Pro-)]: 29 nM.

B10: cyclo(-Tyr-His-Lys-Cys-His-Gly-^DPro-Trp-Thr-Ile-Cys-Tyr-Glu-Lys-^DTic-Pro-) (peptide)
peptide: cyclo(YHKCHG[dP]WTICYEK[dTic]P)
modifications: disulfide 4-11
SMILES: CC[C@H](C)[C@@H]1NC(=O)[C@H]([C@@H](C)O)NC(=O)[C@H](Cc2c[nH]c3ccccc23)NC(=O)[C@H]2CCCN2C(=O)CNC(=O)[C@H](Cc2c[nH]cn2)NC(=O)[C@@H]2CSSC[C@H](NC1=O)C(=O)N[C@@H](Cc1ccc(O)cc1)C(=O)N[C@@H](CCC(=O)O)C(=O)N[C@@H](CCCCN)C(=O)N1Cc3ccccc3C[C@@H]1C(=O)N1CCC[C@H]1C(=O)N[C@@H](Cc1ccc(O)cc1)C(=O)N[C@@H](Cc1c[nH]cn1)C(=O)N[C@@H](CCCCN)C(=O)N2
B10: the “β-Arrestin IC50” value was found to be 56 nM.
The same measure for cyclo(YHKCWG[dP]WTICYE[Dab][dP]P) (disulfide 4-11) [cyclo(-Tyr-His-Lys-Cys-Trp-Gly-^DPro-Trp-Thr-Ile-Cys-Tyr-Glu-Dab-^DPro-Pro-)]: 53 nM; for cyclo(YHKCHG[dP]WTICYEK[dPro(4S-NH2)]P) (disulfide 4-11) [cyclo(-Tyr-His-Lys-Cys-His-Gly-^DPro-Trp-Thr-Ile-Cys-Tyr-Glu-Lys-^DPro((4S)NH2)-Pro-)]: 41 nM.

B11: cyclo(-Tyr-His-Lys-Cys-His-Gly-^DPro-Trp-Thr-Ile-Cys-Tyr-Glu-Glu-^DPro-Pro-) (peptide)
peptide: cyclo(YHKCHG[dP]WTICYEE[dP]P)
modifications: disulfide 4-11
SMILES: CC[C@H](C)[C@@H]1NC(=O)[C@H]([C@@H](C)O)NC(=O)[C@H](Cc2c[nH]c3ccccc23)NC(=O)[C@H]2CCCN2C(=O)CNC(=O)[C@H](Cc2c[nH]cn2)NC(=O)[C@@H]2CSSC[C@H](NC1=O)C(=O)N[C@@H](Cc1ccc(O)cc1)C(=O)N[C@@H](CCC(=O)O)C(=O)N[C@@H](CCC(=O)O)C(=O)N1CCC[C@@H]1C(=O)N1CCC[C@H]1C(=O)N[C@@H](Cc1ccc(O)cc1)C(=O)N[C@@H](Cc1c[nH]cn1)C(=O)N[C@@H](CCCCN)C(=O)N2
For the molecule B11, the “β-Arrestin IC50” value is 57 nM.
The result for cyclo(YHKCHG[dP]WTICYEK[dPro((4S)OH)]P) (disulfide 4-11) [cyclo(-Tyr-His-Lys-Cys-His-Gly-^DPro-Trp-Thr-Ile-Cys-Tyr-Glu-Lys-^DPro((4S)OH)-Pro-)] reads 39 nM.

B12: cyclo(-Tyr-His-Lys-Cys-Trp-Gly-^DPro-Trp-Thr-Ile-Cys-Tyr-Glu-Lys-^DLys-Pro-) (peptide)
peptide: cyclo(YHKCWG[dP]WTICYEK[dK]P)
modifications: disulfide 4-11
SMILES: CC[C@H](C)[C@@H]1NC(=O)[C@H]([C@@H](C)O)NC(=O)[C@H](Cc2c[nH]c3ccccc23)NC(=O)[C@H]2CCCN2C(=O)CNC(=O)[C@H](Cc2c[nH]c3ccccc23)NC(=O)[C@@H]2CSSC[C@H](NC1=O)C(=O)N[C@@H](Cc1ccc(O)cc1)C(=O)N[C@@H](CCC(=O)O)C(=O)N[C@@H](CCCCN)C(=O)N[C@H](CCCCN)C(=O)N1CCC[C@H]1C(=O)N[C@@H](Cc1ccc(O)cc1)C(=O)N[C@@H](Cc1c[nH]cn1)C(=O)N[C@@H](CCCCN)C(=O)N2
Turning to B12, the “β-Arrestin IC50” value was 126 nM.
